# According to the domain aggregation screens of Martell et al. (2025):
# Assay: soluble fraction after stress (log2 fold change); higher = more stays soluble; pooled small domains, quantitative proteomics
# Settings: stress: 75 degC
# 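Further: 20 min heating vs room temperature control held 20 min.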
row,Sequence,soluble fraction (log2)
1,HMRMRPNERQKRIIELLSFRRHETIGNFANEFGVSRDTIKRDIITLQEEYPIISERGYEGGISLPDGYYI,-1.08
2,HMRMSLDEAKAVVLPIGEYKGRNMGEVLAIKPELIDFYASQKFNSSKYPYLKEAAQVILENQ,0.114
3,HMRMSPRERKIYQFIENHPGTKSGEMAEKLGIPLPTIKRLLSDMVASKLLQKHGTGAGTNYSIEE,0.43
4,HMRMSQLSRLISILTLLKSKRLLTATELAEKYDVSIRTVYRDIRKLEEAGIPVYTIEGRGYSLMDNYT,-1.42
5,HMRNANENTLKDLPVAVPNIHVSNIEEKKDFHLIQLEYSQEFDPREDLFNFAVNSSWVILKMTPT,0.215
6,HMRNDIFDQLTEREMQILQEVAKGYRNKQIADHLFISESTVKVHMKSLLKKLQVPSRTAATVLYLERYG,-1.55
7,HMRNEFEAHSDGTRIQLNDRSKATFSVYDVQGRLIHSFQDFSGSSFNIEPKNQLLIITRETAEGVSVKKLV,0.34
8,HMRNKTVKEVLDYIEKNSEFIFFYYSKAIDTKRIVSLSVKDQPITVILDQLFKNTDVLYEIKDRQISLKRE,0.1
9,HMRNTETMKEIQAFVEDYFFEYHQSPSMQKVADAIGTSKSTAYYYVMEMARNGMLHYDGKTIETPHTQKS,-0.82
10,HMRPDDPYLVIGASREMGDEELKRHYRRLVAETHPDRGIARGLPAEAIAIATRRLAAINAAWDAIERERGL,0.000257
11,HMRPDSFEAGEAEAGSRLDRLLAARLGIPRNQVQQWIGGGRVTVDAEPVRASLVVRAGMRIAWDPPPPP,-1.56
12,HMRPEKLVLKALRGAHGPLSAEEVAGRIEADGGAGLDVARVEHVLGQLERSGTVAALGGGKYLALR,0.692
13,HMRPHDDHLREQLLGIATETIARTGVEGLSLRTLATDAGTSTSAVYQLFGSRAALLDAVYLRVLE,-1.47
14,HMRPLISQTLRIDRGEGDIAGPLGVLAKEYPHLSMGSYPFQKDGIYGAHVVIRGSDPGMVEAAMDKLKAAF,0.338
15,HMRPLTPLEKLTPDADGKYYHIVQSGETLSWIAKLYETTAEKLQAWNNLFSSDIFPNQKLLLQVTPP,0.134
16,HMRPPLEWGTHGEITTRTVASGYVRASARVRLWDGELQRMTATASTASDARASLQHRIAERLRFSEL,-1.45
17,HMRPPLRAAIIDHLARDWHTVAELARLLPASGAHVSRLVVELRAVGAVDERISHPDWPGNRPTEYRLRRA,-3.57
18,HMRPTHYSGPSVIAMINNRVWFSDGSRLAPGEHHDDLEVVGLSPPWSAKVRWQGVEFDVGLFE,-2.35
19,HMRQGHLDLLRQIHALPPSTREVVYLRAFGGLSFREIGDVLGRTETWARVTFYRGKEALRKG,-0.106
20,HMRQHHMIISTKLGTPKEELAKLVSGFEDQGLRVSVITGTDYTVIGLVGDTTHLDEKRIRANPYVDNVQRV,-0.813
21,HMRQIMIIVLKSTATKEDSLLFKNKLEQEYGVKVNEWTGVESTVLGLIGDTTKIDIDYISAQDIVESVKRV,-2.27
22,HMRQKTTFFATESFELPNGEKVEEGQIFRLNDGAFNIAEQQGITRFLTSEANYGRMIAANAEVEKAKLDA,0.605
23,HMRQLISIYNNTIGADEIDQMRNILSNSGYKEGVDFAVQTADKKSVILVRRDLAGMIQEQLSGEGLPS,-0.119
24,HMRQNPESFLNHKVKKNESLESLTKKYELTENEIIFYNPLIQKIGLKKRMILKIPIYNNQNLVTKSVD,-0.15
25,HMRQPRGQRVTVREASSLLPFLFAHLTDRSRSAVKSLLRHGQIWVNGRVTTHFDMPLRPGDTVLISHERG,-1.33
26,HMRQSQEVSGGERYRRLTAYLDTHPFITRKEYSGITGLLKNKALNDLNLLVNKGYLEAMGRGSHKVYVRPM,-0.86

row,Sequence,soluble fraction (log2)
1,HMRQSSLRTRELLIDAARQLFARFGVEKTTMNDIAEASKRGRRTVYMYFNSKSDVFYAVVGRE,-0.0881
2,HMRQVFPNPSSSQIKLASSRIGQAFSILDQQGRVVLSGKVSEEAVIALENLAKGIYVLKIGSWSETILK,-2.89
3,HMRRATLERLANNTAEKAIRYKRSLALEPMNPQERRIIHAALQEVEGVSTHSVGTEPNRKVIVVPDGV,-0.329
4,HMRRFEFSDGSSNKFWQITRDGTSLTVTFGKIGTAGQTQLKELATEAAAIAEHDKLVKEKTKKGYAEVG,-0.174
5,HMRRGFGYVRKLPSGRWQASFVGPDLARHSAPHTFETKGDAEGWLGRRQADVVAGEWRPPVP,-0.00612
6,HMRRISLEDWQLIESLIRRDWSPEQISLWLKKYKKIRVSHEWIYQYILKDKSKAGDLHTHLRSR,0.00689
7,HMRRKNQVQSSYQKRENGTYTVRFFLSDDMGSIMDLQLMATREDMARALRERFLKDPEKIYGQIMQMLLR,-1.23
8,HMRRLGTTEIAGILRREISQGILIAKERLPSERSLADTYGVARGTVRQALNLLAREGLVQIRRSSGAYVTF,-0.458
9,HMRRMAYLVGQRGLAMGDFISGTGQVRIGDTVWRAEAVEGELVRTGDTVVVEGAKMTTAIVRRVM,-1.81
10,HMRRRKPLVSYEYGTRVYAPSEGEPRYRVVATDADGQRVFAKFSSEEAARHRAREIEGRLATS,-0.26
11,HMRRSSQQLTLTEVSTIKEMVTSEEYRHVPTGTLALLAQRLRKVFASSSTWYRLVRIYKWRRPRGRIH,-0.329
12,HMRRSVYQANVLDAIKHLVDQNELATTKAIAEYIGDDYQGNVSRAIRELLADRKIKKLPKVGVLQPYEA,-0.442
13,HMRRVEDVRTALEHFAAARNTTPMAMTLDQRREAMRELAASGLLNLRRALSEVAQTLGVARSTVYTYLP,-1.39
14,HMRSAKEYKAIREEIYRFIGAYITKHVYAPSNKEIAEAVGISGTTVHRHLIDMIDEGILETD,-2.65
15,HMRSFGTLRRLPSGRYQASYAGPDLRRHAAPTTFETKLDAEGWLRDEHRMIERDEWTAPAARSQLK,-0.0721
16,HMRSFRIGGLVEQGSIARDGQSLTVRFAVTDLAHKIPVTYTGLLPDLFKEGKGVVAEGKLGPDGVFHASQV,-0.0831
17,HMRSPIWKSITATLTAEIAGGQYRAGDKLPTEAELSQRFGVNRHTLRRALAEMAGAGLVVARRGAGVFVQG,-2.5
18,HMRSPLYVQIKQHILGDIRKGVWKPGEKLPTELDLAERFGVSVGTVRRAMGGLEDEGIISRREGSGTFVRT,-0.458
19,HMRSSAATMFGRIALKNKLVDEATLKKVMSELPAGADLGAVLVKQGLISEQHAEAIQKKITAHMKSAP,-0.114
20,HMRSSALDEIPGIGKQRKKNLLVHFTSVAKIKEASLDEIAAVPGMNRKAALVVVEFFQNQERE,-2.28
21,HMRSSNEAVSQRRDKILDYISATGRTSTEIVAKEFGVSVMTARRDLLYLMEKRLISKSSSGLFKVDNN,-3.09
22,HMRTIGDSVYEKIKYDIVHLTLKPGEKLSEASLAEKYGISKAPIRVALRKLQEEGLIVIRPQSGSIVSP,-1.19
23,HMRTMRHLSVPRQETQQILSQLKAEFALPQGARVQPDPSDSKRTLIPVKEGAESELLSRYPVVHAEP,0.0613
24,HMRTNNEITSYKLKSGKKRWKFQTYLGLDDKGQKVSVTRQGFRTYNEAISEYNKLRAQGTQGYQ,-0.948
25,HMRTPTGVQAYLSSGLIKGIGEKTAAAIVDKFGTDALSVIETDPERLLEIPGITPNKLREILESYNQH,0.204
26,HMRTVAERYGLTAGQWRVLELLTQGKTNRQIAEMLDVTEGTVKIHVSAIFKAMKVTNRTQALLLAKKH,-1.28

row,Sequence,soluble fraction (log2)
1,HMRTYDPQAVELNNKALELINQGRLDSALLVYDQSIKTDKTYYFPHIGKSIIYMRKKDWNKAFEETQQAIK,0.493
2,HMRVDLATEVHSVLRRMMSRPPTLQEIRADLDGEEPGRVHEALDALRAAFRGGRGPKNPYESLKRSLRRG,-0.636
3,HMRVDLVQRLARHGLSPRQSAVAGGVLRGLDNGEISRQLYIAEQTVKDHLHEIYHRLGVHTRTELLIKVLG,-2.22
4,HMRVGISRNSGAAGIAVWLTQKLGRPVAKTEEIVHILKNWVDDQYEAGRVTNIGDGELWSVYKQMEAEE,-0.953
5,HMRVTEIDYGAFMKMIEEKNIGEVKVEDYEIVFTDKDNKNIYKTGIMDDPDLTQRLYNSGAVFA,0.0318
6,HMRWGDPLTVKVPSFIGQTKDDIAKQHYPFRIEWHGEGAKIGSQLPEVDSVIKQDGTIHLYLV,-0.0635
7,HMRYFDDEELNNKFLEFLSMRKKIRKPVRTDRALKALLKKLHELSGGDVGLMKQIIDQSLDKEWLGLFEL,-0.889
8,HMRYNPETTAGRRGLIIKMLDEYGQVNVNELSRYFNVSEVTVRNDLAYLERKNLLIRARGGAIKTE,-1.91
9,HMRYWVKSETDFLIENRGKYSYQEFADMLGRSYAVVYDKMHQLKIDYTKEELEIFDEKHKAQMREKQQR,-1.96
10,HMSAAPVGPWALSEFLDAVEKDSVERVTFDDAGKALVAVDADGGRHRVEILPSEGPEILAALRKHSVQFA,0.181
11,HMSADEVSQQLTSEQTKSKSYQALLQAYAAYQQKSFDDAALELQNVQQDVLSDSQKTIYNTISQAVNS,0.26
12,HMSADISIGYNIPKGSVTVSAGGRTLQEGIDYDINYDLGTIKITNQAILNAGLPVQVNFENNAS,0.849
13,HMSADLVYLRKRLQDAIAQLPENMRTAYTLFQIANRSIREISELTGASESLVKVRIHRAKGKLQKQLEDLK,-1.43
14,HMSAEDYLERIHELIESKGTAHVADIAQSLGVGKPSVTSMVQKLADEGYLNYEKYRSLTLTDSGRSIA,0.165
15,HMSAEDYMEMIYRLSQENGFTRVNDLASALNVQPPSVTRMIQKLAELNLIKYEKYGVIMLQPYGIEVGRSL,-2.65
16,HMSAEGPALADWVVRDAHSIGAKITNSVAQLLIDRVGHNQQLLHNELQKLALVQTDISAELVKTMSHY,-0.643
17,HMSAETRSWTDAQGNQTQAVLRGFDGGDVLLQNAAGKTLRVPVKNLSEDDQRYVVLNISTLID,-0.0549
18,HMSAITLDQARAIALDHAGISEGDATFVKEQTGTSSYEIEFYSGSNEYDYEIDKATGAILNVDR,0.22
19,HMSALAEELIKKNQAMILTIKPRDTIWGIANRFQSPPSEKFINQIIELNQVDPYRLRIGQDLLIPLN,-0.984
20,HMSALTDQQQRVLELVASGLVYKEVAAALSISEPTVKYHMGNILTRLHVKNRAQAIAAARQQGLL,-1.58
21,HMSAMKYTSEVFQRLSRGQFISSNSIDAETRAIYSDIEENQQEYEDYFSKIDFLLSSGDGFYYFSRK,-2.38
22,HMSAMSPTEVGERLRLAREAVRMTQKQAADAISVARTTLVAIEQGQRRVRIDELQQLAKTYGVSVNAILR,-2.27
23,HMSAPAKKPKIKVDLSKVHAGTIVRHKGYGLGQVKGIDGAIIVVTFDGVDKKFQFPGGFENGFLFLTED,-1.48
24,HMSAPLKELGNDPESGKPIVVKDGRFGAYVTDGETNATLRKTDAVESLTPERAAELLAEKRAKG,0.493
